Values quoted from earlier work, collected in PMC3505834.

Target: C3b C3b (Homo sapiens) (UniProt P01024)
Sequence (P01024 566-670): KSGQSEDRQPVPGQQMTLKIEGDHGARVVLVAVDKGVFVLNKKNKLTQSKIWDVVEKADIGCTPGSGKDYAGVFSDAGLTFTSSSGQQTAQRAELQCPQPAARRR

Chain of CD46 (P15529 35-343): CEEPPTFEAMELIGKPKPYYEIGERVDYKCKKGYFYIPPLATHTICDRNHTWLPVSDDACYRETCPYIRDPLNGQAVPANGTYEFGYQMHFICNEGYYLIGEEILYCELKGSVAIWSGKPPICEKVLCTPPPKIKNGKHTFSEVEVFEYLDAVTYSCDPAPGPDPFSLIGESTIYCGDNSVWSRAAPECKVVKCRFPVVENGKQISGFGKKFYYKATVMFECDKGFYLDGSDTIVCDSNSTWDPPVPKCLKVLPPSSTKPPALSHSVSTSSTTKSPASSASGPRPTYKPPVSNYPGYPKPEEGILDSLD

Substance: CD46 (from UniProt P15529)
- Kd: 1 µM
